Here are results for 5 molecules from patent publication US20210002376A1 (UNIVERSIT T STUTTGART, published 2021).

For one experiment, the target named is T1, EGFR-His (UniProt P00533 25-645).
T1 construct: range 25-645; also called His-tagged EGFR
The experiment is described as follows: ELISA, coated His-tagged EGFR ECD, anti-human Fc-HRP.

For experiment [1], the target named is T2, HER3-His (UniProt P21860 21-643).
T2 construct: range 21-643; also called His-tagged HER3; second antigen
The experiment is described as follows: ELISA, coated His-tagged HER3 ECD, anti-human Fc-HRP.
Description: (§1) The His-tagged EGFR or HER3 proteins were used as antigens and coated onto polystyrene microtiter plates at a concentration of 2 μg/ml diluted in PBS. Remaining binding sites were blocked with PBS, 2% skimmed milk (MPBS). […] After washing, bound antibodies were detected with an HRP-conjugated anti-human Fc antibody and TMB, H₂O₂ as substrate. […] Simultaneous binding to both antigens, EGFR and HER3, was confirmed by a second binding ELISA analysis. As first antigen, EGFR-Fc fusion protein was coated onto polystyrene microtiter plates at 2 μg/ml in PBS. Remaining binding sites were blocked with PBS, 2% skimmed milk (MPBS). […] After washing, the second antigen, HER3-His (300 nM diluted in MPBS), was added to the plates. After washing, bound HER3-His (second antigen) was detected with an HRP-conjugated anti-His antibody and TMB, H₂O₂ as substrate.

The target of experiment [2] is T2, HER3-His. The experiment is described as follows: simultaneous binding ELISA: coated EGFR-Fc, Db titrated, HER3-His 300 nM added, anti-His-HRP.
Description: as §1
The next experiment deals with T3, TNFR2 (on Kym-1 cells) (UniProt P20333 23-461, limits assumed).
T3 sequence (looked up): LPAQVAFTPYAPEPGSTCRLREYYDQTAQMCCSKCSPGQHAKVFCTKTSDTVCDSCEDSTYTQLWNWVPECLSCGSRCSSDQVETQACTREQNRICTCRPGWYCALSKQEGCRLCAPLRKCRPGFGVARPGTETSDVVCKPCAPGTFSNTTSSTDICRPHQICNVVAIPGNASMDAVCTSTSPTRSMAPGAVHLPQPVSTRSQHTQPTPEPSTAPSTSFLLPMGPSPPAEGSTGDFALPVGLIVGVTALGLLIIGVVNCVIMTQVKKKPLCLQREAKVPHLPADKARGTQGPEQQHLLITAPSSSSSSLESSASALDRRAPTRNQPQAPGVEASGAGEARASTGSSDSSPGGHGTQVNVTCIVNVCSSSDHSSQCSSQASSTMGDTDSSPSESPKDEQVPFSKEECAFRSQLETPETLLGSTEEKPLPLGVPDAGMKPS
Nature of the experiment: cell-based or functional assay.

For experiment [3], the target named is T4, TNFR2-Fc (Enbrel) fusion protein (UniProt P20333 23-257).
T4 construct: extracellular domain; Commercial product (Enbrel) used as coated antigen
T4 sequence (looked up): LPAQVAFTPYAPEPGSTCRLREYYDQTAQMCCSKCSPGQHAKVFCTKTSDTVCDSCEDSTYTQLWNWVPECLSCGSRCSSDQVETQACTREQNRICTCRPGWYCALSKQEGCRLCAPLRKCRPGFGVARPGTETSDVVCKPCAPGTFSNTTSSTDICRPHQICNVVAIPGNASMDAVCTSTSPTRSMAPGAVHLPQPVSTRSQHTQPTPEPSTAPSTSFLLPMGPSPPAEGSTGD
The experiment is described as follows: ELISA, coated TNFR2-Fc (Enbrel), anti-human Fab-HRP.
Description: Bound protein was detected with an HRP-conjugated anti-human Fab antibody. […] Optical density was measured at 450 nm.

The target in another experiment is T5, CD3 (on Jurkat cells) (UniProt P07766 23-207).
T5 construct: whole, on cells; CD3 is a complex of several chains; only CD3 is printed; also called CD3-positive Jurkat cells; CD3-expressing cells (Jurkat)
T5 sequence (P07766 23-207): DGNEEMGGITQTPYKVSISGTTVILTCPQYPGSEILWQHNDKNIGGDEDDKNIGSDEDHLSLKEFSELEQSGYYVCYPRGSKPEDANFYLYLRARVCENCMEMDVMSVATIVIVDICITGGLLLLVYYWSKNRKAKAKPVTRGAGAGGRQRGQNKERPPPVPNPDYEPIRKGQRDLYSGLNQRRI
The experiment is described as follows: flow cytometry on CD3-expressing Jurkat cells.

The target of experiment [4] is T2, HER3-His. Nature of the experiment: simultaneous binding, flow cytometry: molecule titrated on CD3-positive Jurkat cells, HER3-His 300 nM added, PE anti-His.
Description: (§2) Simultaneous binding of both antigens was tested via flow cytometry using CD3-expressing Jurkat cells. A titration of bispecific Db3-43xhuU3-EHD2-Fab3-43-Fcₖᵢₕ was incubated with the cells for one hour at RT. After washing cells twice with PBA, the second antigen, HER3-His, was added to the cells (300 nM) and incubated for one additional hour at RT. Cells were washed twice using PBA. Bound HER3-His was detected using a PE-labeled anti-His antibody. After washing, median fluorescence intensity (MFI) was measured with a Milltenyi MACSQuant® Analyzer 10. Relative MFI (to unstained cells) were calculated by MACSQuant® software and Excel.
(§3) Binding studies of Db3-43xhuU3-EHD2-scFv3-43-Fcₖᵢₕ to HER3-expressing (SKBR3; Table 5) and CD3-expressing cells (Jurkat) were analyzed via flow cytometry. Adherent SKBR3 cells were washed with PBS and shortly trypsinized at 37° C. Trypsin was quenched with FCS containing medium and removed by centrifugation (500×g, 5 minutes). Jurkat cells, which are suspension cells, were directly used without trypsin treatment. […] Bound antibodies were detected using PE-labeled anti-human Fc secondary antibody, which was incubated for another hour at 4° C. After washing, median fluorescence intensity (MFI) was measured with a Milltenyi MACSQuant® Analyzer 10. Relative MFI (to unstained cells) were calculated by MACSQuant® software and Excel. […]
The next experiment addresses T6, HER3 (on tumor cells) (UniProt P21860 20-1342, limits assumed).
T6 construct: whole, on cells; also called HER3 on MCF-7, SKBR-3 (SKBR3) and FaDu cells
The experiment is described as follows: flow cytometry on HER3-expressing SKBR-3 cells.

Description for CD3 (on Jurkat cells): as §2, §3
Description for EGFR-His: as §1

B1: Db3-43xhu225-EHD2-Fc (bispecific antibody)
heavy: EVQLVESGGGLVQPGGSLRLSCAASGFSLTNYGVHWVRQAPGKGLEWLGVIWSGGNTDYNTPFTSRFTISRDNSKNTLYLQMNSLRAEDTAVYYCARALTYYDYEFAYWGQGTTVTVSSGGGGSQAGLTQPPAVSVAPGQTASITCGRDNIGSRSVHWYQQKPGQAPVLVVYDDSDRPAGIPERFSGSNYENTATLTISRVEAGDEADYYCQVWGITSDHVVFGGGTKLTVLASDFTPPTVKILQSSCDGGGHFPPTIQLLCLVSGYTPGTINITWLEDGQVMDVDLSTASTTQEGELASTQSELTLSQKHWLSDRTYTCQVTYQGHTFEDSTKKCADSNDKTHTCPPCPAPPVAGPSVFLFPPKPKDTLMISRTPEVTCVVVDVSHEDPEVKFNWYVDGVEVHNAKTKPREEQYNSTYRVVSVLTVLHQDWLNGKEYKCKVSNKGLPSSIEKTISKAKGQPREPQVYTLPPSRDELTKNQVSLTCLVKGFYPSDIAVEWESNGQPENNYKTTPPVLDSDGSFFLYSKLTVDKSRWQQGNVFSCSVMHEALHNHYTQKSLSLSPGK
light: QVQLQQSGPGLVKPSQTLSLTCAISGDSVSSNRAAWNWIRQSPSRGLEWLGRTYYRSKWYNDYAQSLKSRITINPDTPKNQFSLQLNSVTPEDTAVYYCARDGQLGLDALDIWGQGTMVTVSSGGGGSDIQLTQSPSFLSASVGDRVTITCRASQSIGTNIHWYQQKPGKAPKLLIKYASESISGVPSRFSGSGSGTEFTLTISSLQPEDFATYYCQQNNNWPTTFGAGTKLEIKRTDFTPPTVKILQSSCDGGGHFPPTIQLLCLVSGYTPGTINITWLEDGQVMDVDLSTASTTQEGELASTQSELTLSQKHWLSDRTYTCQVTYQGHTFEDSTKKCADSN
notes: homodimeric Fc part; also called bispecific, tetravalent diabody fusion protein using EHD2
Take B1: the EC50 is 0.28 nM with EGFR-His, 0.35 nM in the experiment with HER3-His [1] and 1.4 nM with HER3-His [2].

B2: Db3-43xhu225-het1EHD2-Fc (bispecific antibody)
heavy: EVQLVESGGGLVQPGGSLRLSCAASGFSLTNYGVHWVRQAPGKGLEWLGVIWSGGNTDYNTPFTSRFTISRDNSKNTLYLQMNSLRAEDTAVYYCARALTYYDYEFAYWGQGTTVTVSSGGGGSQAGLTQPPAVSVAPGQTASITCGRDNIGSRSVHWYQQKPGQAPVLVVYDDSDRPAGIPERFSGSNYENTATLTISRVEAGDEADYYCQVWGITSDHVVFGGGTKLTVLASDFTPPTVKILQSSCDGGGHFPPTIQLLCLVSGYTPGTINITWLEDGQVMDVDLSTASTTQEGELASTQSELTLSQKHWLSDRTYTCQVTYQGHTFEDSTKKSADSNDKTHTCPPCPAPPVAGPSVFLFPPKPKDTLMISRTPEVTCVVVDVSHEDPEVKFNWYVDGVEVHNAKTKPREEQYNSTYRVVSVLTVLHQDWLNGKEYKCKVSNKGLPSSIEKTISKAKGQPREPQVYTLPPSRDELTKNQVSLTCLVKGFYPSDIAVEWESNGQPENNYKTTPPVLDSDGSFFLYSKLTVDKSRWQQGNVFSCSVMHEALHNHYTQKSLSLSPGK
light: QVQLQQSGPGLVKPSQTLSLTCAISGDSVSSNRAAWNWIRQSPSRGLEWLGRTYYRSKWYNDYAQSLKSRITINPDTPKNQFSLQLNSVTPEDTAVYYCARDGQLGLDALDIWGQGTMVTVSSGGGGSDIQLTQSPSFLSASVGDRVTITCRASQSIGTNIHWYQQKPGKAPKLLIKYASESISGVPSRFSGSGSGTEFTLTISSLQPEDFATYYCQQNNNWPTTFGAGTKLEIKRTDFTPPTVKILQSSSDGGGHFPPTIQLLCLVSGYTPGTIQITWLEDGQVMDVDLSTASTTQEGELASTQSELTLSQKHWLSDRTYTCQVTYQGHTFEDSTKKCADSN
notes: also called Db3-43xhu225-hetEHD2-Fc
B2: the results for the EC50 in the experiment with EGFR-His, with HER3-His [1] and with HER3-His [2] were 0.24 nM, 0.34 nM and 0.56 nM, respectively.

B3: anti-TNFR2 IgG (antibody, V domains shown)
VH: QVQLQQSGAEVKKPGSAVKVSCKASGGTFSSYAISWVRQAPGQGLEWMGRIIPILGIANYAQKFQGRVTITADKSTSTAYMELSSLRSEDTAVYYCARDGLGDAFDIWGQGTMVTVSS
VL: QSALTQPRSVSGSPGQSITISCTGTSSDVGGYNYVSWYQQHPGKAPKLMIYDVSNRPSGVSNRFSGSKSGNTASLTISGLQAEDEADYYCSSYTSSSTLVVFGGGTKLTVL
With B3, in the experiment with TNFR2 (on Kym-1 cells), the “EC50 of cell death induction, Kym-1 cells, MTT assay after 24 hours” value was approximately 30 nM. It took 0.7 nM to reach a half-maximal effect in experiment [3] (EC50).

B4: Db3-43xhuU3-EHD2-Fab3-43-Fckih (bispecific antibody)
light 1: not shown
heavy 1: QVQLVQSGAEVKKPGSSVKVSCKASGGTFSGYTMNWVRQAPGQGLEWMGLINPYKGVSTYNGKFKDRVTITADKSTSTAYMELSSLRSEDTAVYYCARSGYYGDSDWYFDVWGQGTLVTVSSGGGGSQAGLTQPPAVSVAPGQTASITCGRDNIGSRSVHWYQQKPGQAPVLVVYDDSDRPAGIPERFSGSNYENTATLTISRVEAGDEADYYCQVWGITSDHVVFGGGTKLTVLASDFTPPTVKILQSSCDGGGHFPPTIQLLCLVSGYTPGTINITWLEDGQVMDVDLSTASTTQEGELASTQSELTLSQKHWLSDRTYTCQVTYQGHTFEDSTKKCADSNDKTHTCPPCPAPPVAGPSVFLFPPKPKDTLMISRTPEVTCVVVDVSHEDPEVKFNWYVDGVEVHNAKTKPREEQYNSTYRVVSVLTVLHQDWLNGKEYKCKVSNKGLPSSIEKTISKAKGQPREPQVCTLPPSRDELTKNQVSLSCAVKGFYPSDIAVEWESNGQPENNYKTTPPVLDSDGSFFLVSKLTVDKSRWQQGNVFSCSVMHEALHNHYTQKSLSLSPGK
heavy 2: QVQLQQSGPGLVKPSQTLSLTCAISGDSVSSNRAAWNWIRQSPSRGLEWLGRTYYRSKWYNDYAQSLKSRITINPDTPKNQFSLQLNSVTPEDTAVYYCARDGQLGLDALDIWGQGTMVTVSSASTKGPSVFPLAPSSKSTSGGTAALGCLVKDYFPEPVTVSWNSGALTSGVHTFPAVLQSSGLYSLSSVVTVPSSSLGTQTYICNVNHKPSNTKVDKKVEPKSCGTDKTHTCPPCPAPPVAGPSVFLFPPKPKDTLMISRTPEVTCVVVDVSHEDPEVKFNWYVDGVEVHNAKTKPREEQYNSTYRVVSVLTVLHQDWLNGKEYKCKVSNKGLPSSIEKTISKAKGQPREPQVYTLPPCRDELTKNQVSLWCLVKGFYPSDIAVEWESNGQPENNYKTTPPVLDSDGSFFLYSKLTVDKSRWQQGNVFSCSVMHEALHNHYTQKSLSLSPGK
light 2: QAGLTQPPAVSVAPGQTASITCGRDNIGSRSVHWYQQKPGQAPVLVVYDDSDRPAGIPERFSGSNYENTATLTISRVEAGDEADYYCQVWGITSDHVVFGGGTKLTVLGQPKAAPSVTLFPPSSEELQANKATLVCLISDFYPGAVTVAWKADSSPVKAGVETTTPSKQSNNKYAASSYLSLTPEQWKSHRSYSCQVTHEGSTVEKTVAPTECS
notes: Four different polypeptides; also called bispecific, trivalent Diabody-Fab fusion protein targeting HER3 (3-43) and CD3 (huU3)
As to B4, the 50% effective concentration (EC50) in the experiment with CD3 (on Jurkat cells) was 9.5 nM; with HER3-His [4], 13.8 nM; with HER3 (on tumor cells), 0.03 nM.

B5: hu225-IgG (antibody, V domains shown)
VH: EVQLVESGGGLVQPGGSLRLSCAASGFSLTNYGVHWVRQAPGKGLEWLGVIWSGGNTDYNTPFTSRFTISRDNSKNTLYLQMNSLRAEDTAVYYCARALTYYDYEFAYWGQGTTVTVSS
VL: DIQLTQSPSFLSASVGDRVTITCRASQSIGTNIHWYQQKPGKAPKLLIKYASESISGVPSRFSGSGSGTEFTLTISSLQPEDFATYYCQQNNNWPTTFGAGTKLEIK
Regarding B5, the response in the experiment with EGFR-His was half-maximal at 0.23 nM (EC50). That is a sub-nanomolar value.
